Results from patent US12630600B2 (MEDIMMUNE LIMITED, priority 2022, dated 2026).
Starred links: 1 amine or outer side, 2 acyl side, 3 side chain; linkers in the order of their positions; H or OH if unused. Non-standard residues stand in square brackets, D forms with d. Groups on a side chain read outwards from the residue. No end group written: not given here. *: point of attachment. C20 diacid = O=C(O)CCCCCCCCCCCCCCCCCCC(=O)*; C18 diacid = O=C(O)CCCCCCCCCCCCCCCCC(=O)*; γGlu = O=C(O)[C@H](CCC(=O)[*:2])N[*:1]; αMeF = C[C@](N)(Cc1ccccc1)C(=O)O; (PEG)2 = polyethylene glycol 2; PEG4 = NCCOCCOCCOCCOCCC(=O)O; AEEA = NCCOCCOCC(=O)O; Aib = CC(C)(N)C(=O)O

B1: Peptide 274 (peptide)
peptide: H[Aib]HGS[αMeF]TSDVSK[αMeF]LDSRAAK([AEEA-γGlu-γGlu-C18 diacid])D[αMeF]VQ[Aib]IANT-NH2
B2: Peptide 272 (peptide)
peptide: H[Aib]HGS[αMeF]TSDVSK[αMeF]LDSRAAK([AEEA-AEEA-C18 diacid])D[αMeF]VQ[Aib]IANT-NH2
B3: Peptide 278 (peptide)
peptide: H[Aib]HGS[αMeF]TSDVSK[αMeF]LDSRAAK([AEEA-C20 diacid])D[αMeF]VQ[Aib]IANT-NH2
B4: Peptide 279 (peptide)
peptide: H[Aib]HGS[αMeF]TSDVSK[αMeF]LDSRAAK([AEEA-γGlu-γGlu-C20 diacid])D[αMeF]VQ[Aib]IANT-NH2
B5: Peptide 277 (peptide)
peptide: H[Aib]HGS[αMeF]TSDVSK[αMeF]LDSRAAK([AEEA-AEEA-C20 diacid])D[αMeF]VQ[Aib]IANT-NH2
B6: Peptide 280 (peptide)
peptide: H[Aib]HGS[αMeF]TSDVSK[αMeF]LDSRAAK([AEEA-AEEA-γGlu-C20 diacid])D[αMeF]VQ[Aib]IANT-NH2
B7: Peptide 270 (peptide)
peptide: H[Aib]HGS[αMeF]TSDVSK[αMeF]LDSRAAK([γGlu-γGlu-C18 diacid])D[αMeF]VQ[Aib]IANT-NH2
B8: Peptide 275 (peptide)
peptide: H[Aib]HGS[αMeF]TSDVSK[αMeF]LDSRAAK([γGlu-γGlu-C20 diacid])D[αMeF]VQ[Aib]IANT-NH2
B9: Peptide 268 (peptide)
peptide: H[Aib]HGS[αMeF]TSDVSK[αMeF]LDSRAAK([AEEA-γGlu-C20 diacid])D[αMeF]VQ[Aib]IANT-NH2
modifications: N-terminus assumed
SMILES: CC[C@H](C)[C@H](NC(=O)C(C)(C)NC(=O)[C@H](CCC(N)=O)NC(=O)[C@@H](NC(=O)[C@](C)(Cc1ccccc1)NC(=O)[C@H](CC(=O)O)NC(=O)[C@H](CCCCNC(=O)COCCOCCNC(=O)CC[C@H](NC(=O)CCCCCCCCCCCCCCCCCCC(=O)O)C(=O)O)NC(=O)[C@H](C)NC(=O)[C@H](C)NC(=O)[C@H](CCCNC(=N)N)NC(=O)[C@H](CO)NC(=O)[C@H](CC(=O)O)NC(=O)[C@H](CC(C)C)NC(=O)[C@](C)(Cc1ccccc1)NC(=O)[C@H](CCCCN)NC(=O)[C@H](CO)NC(=O)[C@@H](NC(=O)[C@H](CC(=O)O)NC(=O)[C@H](CO)NC(=O)[C@@H](NC(=O)[C@](C)(Cc1ccccc1)NC(=O)[C@H](CO)NC(=O)CNC(=O)[C@H](Cc1c[nH]cn1)NC(=O)C(C)(C)NC(=O)[C@@H](N)Cc1c[nH]cn1)[C@@H](C)O)C(C)C)C(C)C)C(=O)N[C@@H](C)C(=O)N[C@@H](CC(N)=O)C(=O)N[C@H](C(N)=O)[C@@H](C)O
B10: Peptide 284 (peptide)
peptide: H[Aib]HGS[αMeF]TSDVSK[αMeF]LDSRAAK([AEEA-AEEA-γGlu-C18 diacid])D[αMeF]VQ[Aib]IANT-NH2
B11: Peptide 281 (peptide)
peptide: H[Aib]HGS[αMeF]TSDVSK[αMeF]LDSRAAK([AEEA-AEEA-γGlu-γGlu-C20 diacid])D[αMeF]VQ[Aib]IANT-NH2
B12: Peptide 263 (peptide)
peptide: H[Aib]HGS[αMeF]TSDVSK[αMeF]LDSRAAK([PEG4-γGlu-γGlu-C18 diacid])D[αMeF]VQ[Aib]IANT-NH2
B13: Peptide 269 (peptide)
peptide: H[Aib]HGS[αMeF]TSDVSK[αMeF]LDSRAAK([PEG4-γGlu-γGlu-C20 diacid])D[αMeF]VQ[Aib]IANT-NH2
modifications: N-terminus assumed
SMILES: CC[C@H](C)[C@H](NC(=O)C(C)(C)NC(=O)[C@H](CCC(N)=O)NC(=O)[C@@H](NC(=O)[C@](C)(Cc1ccccc1)NC(=O)[C@H](CC(=O)O)NC(=O)[C@H](CCCCNC(=O)CCOCCOCCOCCOCCNC(=O)CC[C@H](NC(=O)CC[C@H](NC(=O)CCCCCCCCCCCCCCCCCCC(=O)O)C(=O)O)C(=O)O)NC(=O)[C@H](C)NC(=O)[C@H](C)NC(=O)[C@H](CCCNC(=N)N)NC(=O)[C@H](CO)NC(=O)[C@H](CC(=O)O)NC(=O)[C@H](CC(C)C)NC(=O)[C@](C)(Cc1ccccc1)NC(=O)[C@H](CCCCN)NC(=O)[C@H](CO)NC(=O)[C@@H](NC(=O)[C@H](CC(=O)O)NC(=O)[C@H](CO)NC(=O)[C@@H](NC(=O)[C@](C)(Cc1ccccc1)NC(=O)[C@H](CO)NC(=O)CNC(=O)[C@H](Cc1c[nH]cn1)NC(=O)C(C)(C)NC(=O)[C@@H](N)Cc1c[nH]cn1)[C@@H](C)O)C(C)C)C(C)C)C(=O)N[C@@H](C)C(=O)N[C@@H](CC(N)=O)C(=O)N[C@H](C(N)=O)[C@@H](C)O
B14: Peptide 264 (peptide)
peptide: H[Aib]HGS[αMeF]TSDVSK[αMeF]LDSRAAK([(PEG)2-(PEG)2-γGlu-γGlu-C20 diacid])D[αMeF]VQ[Aib]IANT-NH2
B15: Peptide 282 (peptide)
peptide: H[Aib]HGS[αMeF]TSDVSK[αMeF]LDSRAAK([AEEA-AEEA-γGlu-γGlu-C20 diacid])D[αMeF]VQ[Aib]IANT-NH2
modifications: not fully specified
B16: Peptide 265 (peptide)
peptide: H[Aib]HGS[αMeF]TSDVSK[αMeF]LDSRAAK([AEEA-γGlu-AEEA-C20 diacid])D[αMeF]VQ[Aib]IANT-NH2
B17: Peptide 271 (peptide)
peptide: H[Aib]HGS[αMeF]TSDVSK[αMeF]LDSRAAK([γGlu-C18 diacid])D[αMeF]VQ[Aib]IANT-NH2
modifications: N-terminus assumed
SMILES: CC[C@H](C)[C@H](NC(=O)C(C)(C)NC(=O)[C@H](CCC(N)=O)NC(=O)[C@@H](NC(=O)[C@](C)(Cc1ccccc1)NC(=O)[C@H](CC(=O)O)NC(=O)[C@H](CCCCNC(=O)CC[C@H](NC(=O)CCCCCCCCCCCCCCCCC(=O)O)C(=O)O)NC(=O)[C@H](C)NC(=O)[C@H](C)NC(=O)[C@H](CCCNC(=N)N)NC(=O)[C@H](CO)NC(=O)[C@H](CC(=O)O)NC(=O)[C@H](CC(C)C)NC(=O)[C@](C)(Cc1ccccc1)NC(=O)[C@H](CCCCN)NC(=O)[C@H](CO)NC(=O)[C@@H](NC(=O)[C@H](CC(=O)O)NC(=O)[C@H](CO)NC(=O)[C@@H](NC(=O)[C@](C)(Cc1ccccc1)NC(=O)[C@H](CO)NC(=O)CNC(=O)[C@H](Cc1c[nH]cn1)NC(=O)C(C)(C)NC(=O)[C@@H](N)Cc1c[nH]cn1)[C@@H](C)O)C(C)C)C(C)C)C(=O)N[C@@H](C)C(=O)N[C@@H](CC(N)=O)C(=O)N[C@H](C(N)=O)[C@@H](C)O
B18: Peptide 276 (peptide)
peptide: H[Aib]HGS[αMeF]TSDVSK[αMeF]LDSRAAK([γGlu-C20 diacid])D[αMeF]VQ[Aib]IANT-NH2
B19: Peptide 267 (peptide)
peptide: H[Aib]HGS[αMeF]TSDVSK[αMeF]LDSRAAK([PEG4-γGlu-C20 diacid])D[αMeF]VQ[Aib]IANT-NH2
B20: Peptide 262 (peptide)
peptide: H[Aib]HGS[αMeF]TSDVSK[αMeF]LDSRAAK([AEEA-γGlu-C18 diacid])D[αMeF]VQ[Aib]IANT-NH2
B21: Peptide 266 (peptide)
peptide: H[Aib]HGS[αMeF]TSDVSK[αMeF]LDSRAAK([AEEA-γGlu-AEEA-γGlu-C20 diacid])D[αMeF]VQ[Aib]IANT-NH2
B22: Peptide 261 (peptide)
peptide: H[Aib]HGS[αMeF]TSDVSK[αMeF]LDSRAAK([PEG4-γGlu-C18 diacid])D[αMeF]VQ[Aib]IANT-NH2
modifications: N-terminus assumed
SMILES: CC[C@H](C)[C@H](NC(=O)C(C)(C)NC(=O)[C@H](CCC(N)=O)NC(=O)[C@@H](NC(=O)[C@](C)(Cc1ccccc1)NC(=O)[C@H](CC(=O)O)NC(=O)[C@H](CCCCNC(=O)CCOCCOCCOCCOCCNC(=O)CC[C@H](NC(=O)CCCCCCCCCCCCCCCCC(=O)O)C(=O)O)NC(=O)[C@H](C)NC(=O)[C@H](C)NC(=O)[C@H](CCCNC(=N)N)NC(=O)[C@H](CO)NC(=O)[C@H](CC(=O)O)NC(=O)[C@H](CC(C)C)NC(=O)[C@](C)(Cc1ccccc1)NC(=O)[C@H](CCCCN)NC(=O)[C@H](CO)NC(=O)[C@@H](NC(=O)[C@H](CC(=O)O)NC(=O)[C@H](CO)NC(=O)[C@@H](NC(=O)[C@](C)(Cc1ccccc1)NC(=O)[C@H](CO)NC(=O)CNC(=O)[C@H](Cc1c[nH]cn1)NC(=O)C(C)(C)NC(=O)[C@@H](N)Cc1c[nH]cn1)[C@@H](C)O)C(C)C)C(C)C)C(=O)N[C@@H](C)C(=O)N[C@@H](CC(N)=O)C(=O)N[C@H](C(N)=O)[C@@H](C)O
B23: Peptide 273 (peptide)
peptide: H[Aib]HGS[αMeF]TSDVSK[αMeF]LDSRAAK([AEEA-C18 diacid])D[αMeF]VQ[Aib]IANT-NH2

What follows are binders tested against human GLP-1 receptor (human, UniProt P43220) (assay: cell-based or functional assay).

Row | hGLP-1R EC50 (pM) | Binder
1 | 27.1 | B1
2 | 15.7 | B2
3 | 78.9 | B3
4 | 86.5 | B4
5 | 49.5 | B5
6 | 78.3 | B6
7 | 24.4 | B7
8 | 111 | B8
9 | 39.5 | B9
10 | 43.4 | B10
11 | 155 | B11
12 | 25.4 | B12
13 | 52 | B13
14 | 69.5 | B14
15 | 1230 | B15
16 | 71.2 | B16
17 | 54.6 | B17
18 | 143 | B18
19 | 65.6 | B19
20 | 13 | B20
21 | 66.5 | B21
22 | 16.2 | B22
23 | 22.1 | B23

The binders below were run against human glucagon receptor (human, UniProt P47871) (assay: cell-based or functional assay).

Row | hGluc-R EC50 (pM) | Binder
24 | 31.3 | B1
25 | 14.3 | B2
26 | 83.5 | B3
27 | 150 | B4
28 | 57.3 | B5
29 | 155 | B6
30 | 31.3 | B7
31 | 175 | B8
32 | 29.3 | B9
33 | 119 | B10
34 | 1040 | B11
35 | 64.6 | B12
36 | 271 | B13
37 | 297 | B14
38 | 1140 | B15
39 | 131 | B16
40 | 28 | B17
41 | 91.4 | B18
42 | 128 | B19
43 | 11.7 | B20
44 | 293 | B21
45 | 29.4 | B22
46 | 23.3 | B23
